# Source: PMC6262856
# Biological target: biotin-15d-PGJ2
# Assay: biotin pull-down (avidin) with western-blot quantification (ImageJ)
# Conditions: 293T cells transfected with FLAG-eIF4A1s
row,ratio to parent,Substance
1,2.35,FLAG-eIF4A1 (from UniProt P60842) R295A
2,0.17,FLAG-eIF4A1 (from UniProt P60842) C264S
3,0.03,FLAG-eIF4A1 (from UniProt P60842) C264S; R295A
